Measurements from patent US7008781.

Biological target: Tie-2 receptor in EAhy926 cells (UniProt Q02763)
Assay: cell-based or functional assay
Conditions: scale: fold molar excess of Ang1*

Chain of UniProt Q02763 (Q02763 23-1124 limits assumed): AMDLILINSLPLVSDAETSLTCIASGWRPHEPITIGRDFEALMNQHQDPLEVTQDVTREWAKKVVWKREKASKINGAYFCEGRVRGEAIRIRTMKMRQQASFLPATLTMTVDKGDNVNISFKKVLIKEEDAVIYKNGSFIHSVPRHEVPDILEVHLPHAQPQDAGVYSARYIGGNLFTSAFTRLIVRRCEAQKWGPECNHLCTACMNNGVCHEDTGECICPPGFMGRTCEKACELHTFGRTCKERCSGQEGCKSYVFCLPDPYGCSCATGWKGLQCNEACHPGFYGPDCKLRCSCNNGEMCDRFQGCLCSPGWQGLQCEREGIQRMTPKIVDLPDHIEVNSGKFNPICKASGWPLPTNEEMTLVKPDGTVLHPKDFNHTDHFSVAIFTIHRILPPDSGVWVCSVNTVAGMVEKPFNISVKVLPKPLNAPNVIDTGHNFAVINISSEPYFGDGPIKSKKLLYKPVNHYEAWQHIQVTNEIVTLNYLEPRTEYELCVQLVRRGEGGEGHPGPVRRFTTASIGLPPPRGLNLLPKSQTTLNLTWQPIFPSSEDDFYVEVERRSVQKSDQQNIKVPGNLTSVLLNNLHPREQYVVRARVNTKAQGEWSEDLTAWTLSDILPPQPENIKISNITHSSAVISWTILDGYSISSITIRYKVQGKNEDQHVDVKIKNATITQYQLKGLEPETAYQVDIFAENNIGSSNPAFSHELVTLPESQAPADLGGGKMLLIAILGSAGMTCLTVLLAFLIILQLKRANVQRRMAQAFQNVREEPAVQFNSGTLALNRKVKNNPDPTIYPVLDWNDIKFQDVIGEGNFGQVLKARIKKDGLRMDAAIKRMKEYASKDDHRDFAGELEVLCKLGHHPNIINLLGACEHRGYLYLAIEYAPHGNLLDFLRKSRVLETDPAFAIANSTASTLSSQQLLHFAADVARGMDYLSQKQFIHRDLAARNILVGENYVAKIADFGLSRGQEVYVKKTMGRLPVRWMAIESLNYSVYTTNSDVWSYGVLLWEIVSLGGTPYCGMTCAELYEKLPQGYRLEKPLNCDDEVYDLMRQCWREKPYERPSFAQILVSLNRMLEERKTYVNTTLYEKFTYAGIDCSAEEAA

angiopoietin-2 (from UniProt O15123 19-496) (ligand)
block of Ang1*-mediated Tie-2 receptor phosphorylation in EAhy926 cells: > 20
